Article PMC7615647, “Visualization of direct and diffusion-assisted RAD51 nucleation by full-length human BRCA2 protein” (Molecular cell, 2023)

B1: 167mer 3' tailed DNA (mixed)
DNA 1: CTGCTTTATCAAGATAATTTTTCGACTCATCAGAAATATCCGTTTCCTATATTTATTCCTATTATGTTTTATTCATTTACTTATTCTTTATGTTCATTTTTTATATCCTTTACTTTATTTTCTCTGTTTATTCATTTACTTATTTTGTATTATCCTTATCTTATTTA
DNA 2: CGGATATTTCTGATGAGTCGAAAAATTATCTTGATAAAGCAG
B2: RAD51 C319S labelled with Alexa Fluor 647 C2 maleimide (natural protein, human, UniProt Q06609 1-339, looked up)
chain: MAMQMQLEANADTSVEEESFGPQPISRLEQCGINANDVKKLEEAGFHTVEAVAYAPKKELINIKGISEAKADKILAEAAKLVPMGFTTATEFHQRRSEIIQITTGSKELDKLLQGGIETGSITEMFGEFRTGKTQICHTLAVTCQLPIDRGGGEGKAMYIDTEGTFRPERLLAVAERYGLSGSDVLDNVAYARAFNTDHQTQLLYQASAMMVESRYALLIVDSATALYRTDYSGRGELSARQMHLARFLRMLLRLADEFGVAVVITNQVVAQVDGAAMFAADPKKPIGGNIIAHASTTRLYLRKGRGETRICKIYDSPSLPEAEAMFAINADGVGDAKD
modifications: Alexa Fluor 647 C2 maleimide (labelled residue not stated; protein to dye ratio 0.9-1.0)
notes: RAD51 recombinase, human, C319S variant; also called RAD51(A647); RAD-51(A647); source: E. coli BLR(DE3)pLysS (pET11c-RAD51 C319S), purified (ammonium sulphate, Q Sepharose, Heparin, Mono Q), then labelled
B3: BRCA2-C (residues 966-1596, 2477-3194, 3265-3330)-eGFP (domain or fragment, human, UniProt P51587 966-1596, looked up)
chain: TLGQDLKSDISLNIDKIPEKNNDYMNKWAGLLGPISNHSFGGSFRTASNKEIKLSEHNIKKSKMFFKDIEEQYPTSLACVEIVNTLALDNQKKLSKPQSINTVSAHLQSSVVVSDCKNSHITPQMLFSKQDFNSNHNLTPSQKAEITELSTILEESGSQFEFTQFRKPSYILQKSTFEVPENQMTILKTTSEECRDADLHVIMNAPSIGQVDSSKQFEGTVEIKRKFAGLLKNDCNKSASGYLTDENEVGFRGFYSAHGTKLNVSTEALQKAVKLFSDIENISEETSAEVHPISLSSSKCHDSVVSMFKIENHNDKTVSEKNNKCQLILQNNIEMTTGTFVEEITENYKRNTENEDNKYTAASRNSHNLEFDGSDSSKNDTVCIHKDETDLLFTDQHNICLKLSGQFMKEGNTQIKEDLSDLTFLEVAKAQEACHGNTSNKEQLTATKTEQNIKDFETSDTFFQTASGKNISVAKESFNKIVNFFDQKPEELHNFSLNSELHSDIRKNKMDILSYEETDIVKHKILKESVPVGTGNQLVTFQGQPERDEKIKEPTLLGFHTASGKKVKIAKESLDKVKNLFDEKEQGTSEITSFSHQWAKTLKYREACKDLELACETIEITAAPKCKEMQNPLDLITSLQNARDIQDMRIKKKQRQRVFPQPGSLYLAKTSTLPRISLKAAVGGQVPSACSHKQLYTYGVSKHCIKINSKNAESFQFHTEDYFGKESLWTGKGIQLADGGWLIPSNDGKAGKEEFYRALCDTPGVDPKLISRIWVYNHYRWIIWKLAAMECAFPKEFANRCLSPERVLLQLKYRYDTEIDRSRRSAIKKIMERDDTAAKTLVLCVSDIISLSANISETSSNKTSSADTQKVAIIELTDGWYAVKAQLDPPLLAVLKNGRLTVGQKIILHGAELVGSPDACTPLEAPESLMLKISANSTRPARWYTKLGFFPDPRPFPLPLSSLFSDGGNVGCVDVIIQRAYPIQWMEKTSSGLYIFRNEREEEKEAAKYVEAQQKRLEALFTKIQEEFEEHEENTTKPYLPSRALTRQQVRALQDGAELYEAVKNAADPAYLEGYFSEEQLRALNNHRQMLNDKKQAQIQLEIRKAMESAEQKEQGLSRDVTTVWKLRIVSYSKKEKDSVILSIWRPSSDLYSLLTEGKRYRIYHLATSKSKSKSERANIQLAATKKTQYQQLPVSDEILFQIYQPREPLHFSKFLDPDFQPSCSEVDLIGFVVSVVKKTGLAPFVYLSDECYNLLAIKFWIDLNEDIIKPHMLIAASNLQWRPESKSGLLTLFAGDFSVFSASPKEGHFQETFNKMKNTVENIDILCNEAENKLMHILHANDPKWSTPCKKRRALDFLSRLPLPPPVSPICTFVSPAAQKAFQPPRSCGTKYETPIKKKELNSPQMTPFKKFNE
notes: BRCA2, human, residues 966-1596 (BRC repeats 1-4); BRCA2, human, residues 2477-3194 (C-DBD); BRCA2, human, residues 3265-3330 (TR2); No linkers between the three stretches are stated; source: High Five insect cells, baculovirus (pFBDM-BRCA2-C, MultiBac), purified (StrepTrap, Heparin); not shown: eGFP, C-terminal, kept

Assays:
[1] = system: RAD51(A647) (Homo sapiens); experiment: single-molecule optical tweezers/confocal; conditions: biotinylated hairpin end caps, EMSA: 4 nM Cy5-DNA, 20 mM HEPES pH 7.5, 1 mM MgCl2, 1 mM TCEP, 100 mM KCl, 24 C, 5 min, single-molecule (Fig 1): 100 mM NaCl, 2 mM MgCl2, 1 mM CaCl2, 2 mM ATP …
[2] = target: BRCA2-eGFP;RAD51(A647) (Homo sapiens;Homo sapiens) (UniProt P51587); experiment: single-molecule optical tweezers/confocal; conditions: EMSA: 4 nM Cy5-DNA, 20 mM HEPES pH 7.5, 1 mM MgCl2, 1 mM TCEP, 100 mM KCl, 24 C, 5 min, single-molecule (Fig 1): 100 mM NaCl, 2 mM MgCl2, 1 mM CaCl2, 2 mM ATP …
Sequence of BRCA2-eGFP;RAD51(A647) (Homo sapiens;Homo sapiens) (P51587 whole entry, looked up): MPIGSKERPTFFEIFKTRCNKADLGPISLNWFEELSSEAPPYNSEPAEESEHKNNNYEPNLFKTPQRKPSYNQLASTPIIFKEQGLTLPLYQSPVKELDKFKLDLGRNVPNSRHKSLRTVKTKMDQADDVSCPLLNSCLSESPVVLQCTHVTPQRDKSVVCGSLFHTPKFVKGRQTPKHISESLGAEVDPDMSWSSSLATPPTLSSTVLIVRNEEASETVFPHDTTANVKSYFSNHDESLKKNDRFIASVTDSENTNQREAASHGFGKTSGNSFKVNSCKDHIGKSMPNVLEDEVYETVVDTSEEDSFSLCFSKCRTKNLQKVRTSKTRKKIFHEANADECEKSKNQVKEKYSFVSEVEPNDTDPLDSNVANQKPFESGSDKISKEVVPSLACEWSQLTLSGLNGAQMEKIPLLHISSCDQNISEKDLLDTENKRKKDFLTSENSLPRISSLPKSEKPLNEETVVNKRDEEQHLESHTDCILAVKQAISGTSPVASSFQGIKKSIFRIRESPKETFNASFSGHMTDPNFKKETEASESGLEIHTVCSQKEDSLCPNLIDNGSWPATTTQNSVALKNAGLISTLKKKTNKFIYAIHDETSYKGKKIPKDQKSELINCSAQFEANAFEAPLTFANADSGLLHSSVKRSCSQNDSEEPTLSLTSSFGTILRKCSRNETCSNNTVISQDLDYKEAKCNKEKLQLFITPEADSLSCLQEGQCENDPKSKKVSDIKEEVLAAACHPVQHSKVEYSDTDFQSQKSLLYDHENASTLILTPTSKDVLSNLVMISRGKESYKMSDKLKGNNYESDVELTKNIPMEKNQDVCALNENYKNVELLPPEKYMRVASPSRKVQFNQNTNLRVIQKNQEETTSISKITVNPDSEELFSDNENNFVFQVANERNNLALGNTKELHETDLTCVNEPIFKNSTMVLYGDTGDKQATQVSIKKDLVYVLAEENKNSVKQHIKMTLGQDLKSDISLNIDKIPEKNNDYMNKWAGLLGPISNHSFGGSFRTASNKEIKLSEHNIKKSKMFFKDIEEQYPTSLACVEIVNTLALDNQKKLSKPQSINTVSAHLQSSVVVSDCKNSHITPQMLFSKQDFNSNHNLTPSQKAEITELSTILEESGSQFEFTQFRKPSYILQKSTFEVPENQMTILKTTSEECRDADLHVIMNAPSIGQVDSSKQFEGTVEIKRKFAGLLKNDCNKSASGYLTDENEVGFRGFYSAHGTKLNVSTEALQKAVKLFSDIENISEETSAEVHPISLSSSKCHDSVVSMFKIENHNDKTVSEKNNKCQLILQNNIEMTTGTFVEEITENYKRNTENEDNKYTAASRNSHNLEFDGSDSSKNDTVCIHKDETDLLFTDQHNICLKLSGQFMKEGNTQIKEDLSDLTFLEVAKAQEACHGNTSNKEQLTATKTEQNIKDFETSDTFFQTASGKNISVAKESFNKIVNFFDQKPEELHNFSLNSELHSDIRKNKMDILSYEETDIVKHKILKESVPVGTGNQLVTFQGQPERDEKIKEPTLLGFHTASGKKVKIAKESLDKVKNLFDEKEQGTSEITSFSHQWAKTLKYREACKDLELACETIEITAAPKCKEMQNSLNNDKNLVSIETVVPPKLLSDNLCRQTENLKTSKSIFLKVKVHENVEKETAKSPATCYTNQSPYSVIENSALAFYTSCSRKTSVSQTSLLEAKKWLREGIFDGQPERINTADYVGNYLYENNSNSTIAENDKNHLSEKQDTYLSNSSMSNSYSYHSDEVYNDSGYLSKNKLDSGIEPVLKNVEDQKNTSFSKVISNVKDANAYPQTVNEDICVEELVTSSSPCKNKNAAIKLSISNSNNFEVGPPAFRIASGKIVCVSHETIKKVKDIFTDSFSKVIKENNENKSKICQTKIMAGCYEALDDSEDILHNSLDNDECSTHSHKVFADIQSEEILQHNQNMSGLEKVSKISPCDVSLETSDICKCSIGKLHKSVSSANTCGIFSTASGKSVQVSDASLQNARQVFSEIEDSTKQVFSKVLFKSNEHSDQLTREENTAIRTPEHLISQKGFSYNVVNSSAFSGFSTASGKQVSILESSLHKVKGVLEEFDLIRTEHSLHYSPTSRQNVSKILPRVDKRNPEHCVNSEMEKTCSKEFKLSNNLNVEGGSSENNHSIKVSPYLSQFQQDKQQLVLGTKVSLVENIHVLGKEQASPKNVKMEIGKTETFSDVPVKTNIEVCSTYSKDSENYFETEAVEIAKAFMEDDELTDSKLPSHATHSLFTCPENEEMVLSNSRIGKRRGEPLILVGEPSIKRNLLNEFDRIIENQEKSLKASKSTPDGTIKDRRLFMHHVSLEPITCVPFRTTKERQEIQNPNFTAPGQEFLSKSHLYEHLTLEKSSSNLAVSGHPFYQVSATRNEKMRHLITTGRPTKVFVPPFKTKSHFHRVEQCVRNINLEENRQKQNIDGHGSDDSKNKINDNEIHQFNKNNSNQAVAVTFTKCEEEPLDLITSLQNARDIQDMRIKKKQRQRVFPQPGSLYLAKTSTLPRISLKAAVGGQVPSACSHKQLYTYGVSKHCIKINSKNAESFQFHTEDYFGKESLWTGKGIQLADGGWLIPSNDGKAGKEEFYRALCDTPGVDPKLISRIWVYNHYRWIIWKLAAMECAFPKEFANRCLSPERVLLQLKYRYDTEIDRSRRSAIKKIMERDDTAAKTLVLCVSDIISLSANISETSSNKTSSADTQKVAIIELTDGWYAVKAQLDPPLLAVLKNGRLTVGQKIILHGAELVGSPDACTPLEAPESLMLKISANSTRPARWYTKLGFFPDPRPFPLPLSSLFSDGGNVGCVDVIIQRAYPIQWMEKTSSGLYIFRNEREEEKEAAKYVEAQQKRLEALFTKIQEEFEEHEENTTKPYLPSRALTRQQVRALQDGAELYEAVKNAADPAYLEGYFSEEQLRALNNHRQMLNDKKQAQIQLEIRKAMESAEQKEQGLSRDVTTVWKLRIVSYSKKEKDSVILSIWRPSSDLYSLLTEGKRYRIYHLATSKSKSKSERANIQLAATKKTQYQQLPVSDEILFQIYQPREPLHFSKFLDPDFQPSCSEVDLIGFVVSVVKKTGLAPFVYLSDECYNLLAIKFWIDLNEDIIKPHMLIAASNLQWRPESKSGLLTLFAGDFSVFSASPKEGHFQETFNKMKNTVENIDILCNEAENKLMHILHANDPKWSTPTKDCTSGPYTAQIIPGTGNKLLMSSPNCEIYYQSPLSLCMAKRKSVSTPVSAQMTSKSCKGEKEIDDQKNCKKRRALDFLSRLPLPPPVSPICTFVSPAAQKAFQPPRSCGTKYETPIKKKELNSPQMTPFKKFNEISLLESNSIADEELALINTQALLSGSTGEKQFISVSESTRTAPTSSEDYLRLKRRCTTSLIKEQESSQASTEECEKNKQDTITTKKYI

BRCA2-eGFP = BRCA2-eGFP (Homo sapiens, UniProt P51587 1-3418); experiment: EMSA; retains high ssDNA affinity; EMSA: 4 nM Cy5-DNA, 20 mM HEPES pH 7.5, 1 mM MgCl2, 1 mM TCEP, 100 mM KCl, 24 C, 5 min; single-molecule (Fig 1): 100 mM NaCl, 2 mM MgCl2, 1 mM CaCl2, 2 mM ATP; conditions: protein: recombinant; tags: C-terminal Ala8 linker, eGFP(A207K), Flag3; label: 5'-Cy5 on strand 1; 42 bp duplex, 3' overhang on strand 1
[3] = target: T1, full-length human BRCA2-eGFP (human, UniProt P51587 1-3418); experiment: single-molecule confocal fluorescence imaging with dual optical trapping (C-trap); 5 nM BRCA2-eGFP and 25 nM RAD51(A647) together in solution; order of their arrival on gapped lambda DNA held between beads; 50 mM Tris-HCl pH 7.5, 100 mM NaCl, 2 mM MgCl2, 1 mM CaCl2, 2 mM ATP, 0.2 mg/ml BSA; with or without 1.25 nM RPA; conditions: both partners purified
T1 construct: breast cancer susceptibility protein 2 (BRCA2), human, full length, 3,418 amino acids; Sf9 codon-optimised gene; Order on the chain: BRCA2, (alanine)8 linker, monomeric eGFP A207K (so in the source), Flag3; Eluted from FLAG resin with Flag3 peptide; no tag cleavage is described; also called BRCA2 fl; fl BRCA2; source: Sf9 insect cells, baculovirus (pFB-BRCA2-eGFP), purified (FLAG M2 agarose, SP …)

[4] = target: T2, BRCA2-N (residues 1-2142)-eGFP (human, UniProt P51587 1-2142); experiment: single-molecule confocal fluorescence imaging with dual optical trapping (C-trap); BRCA2-eGFP (full length or truncation) and 20 nM RAD51(A647) moving together on lambda dsDNA held at 10 pN; 50 mM Tris-HCl pH 7.5, 50 mM NaCl or as indicated (25-150 mM), 2 mM MgCl2, 2 mM ATP, 0.2 mg/ml BSA; conditions: both partners purified
T2 construct: BRCA2, human, residues 1-2142 (N-DBD and BRC repeats 1-8; lacks C-DBD, TR2 and exC-DBR); also called N-DBD-BRC1-8 truncated protein; source: High Five insect cells, baculovirus (pFBDM-BRCA2-N, MultiBac), purified (StrepTrap, Heparin); not shown: eGFP, C-terminal, kept

[5] = target: T3, BRCA2-C2 (residues 966-3418)-eGFP (human, UniProt P51587 966-3418); experiment: as above; conditions: both partners purified
T3 construct: BRCA2, human, residues 966-3418 (BRC repeats 1-8, C-DBD, TR2, full exC-DBR; lacks N-DBD); source: High Five insect cells, baculovirus (pFBDM-BRCA2-C2, MultiBac), purified (StrepTrap, Heparin); not shown: eGFP, C-terminal, kept

[6] = target: B2; experiment: as above; conditions: both partners purified

Molecule: gapped lambda DNA (gDNA), ssDNA gap
- binding signal (nuclei knt-1 min-1 (nucleation rate)) ([1]; 1.25 nM RPA, 2 mM ATP): 0.003
- binding signal (nuclei knt-1 min-1 (nucleation rate)) ([1]; 25 nM RAD51, 2 mM ATP, no RPA): 0.277
- binding signal (s (cluster dwell time)) ([1]; no BRCA2): 27.2
- binding signal (fold nucleation rate vs RAD51 alone) ([2]; 5 nM BRCA2-eGFP, 25 nM RAD51, 2 mM ATP, no RPA, biotinylated hairpin end caps): 2.7
- binding signal (s (RAD51 cluster dwell time)) ([2]; with BRCA2-eGFP, biotinylated hairpin end caps): 102

Molecule: lambda dsDNA (including dsDNA arms of gDNA)
- binding signal (um2 s-1 (1D diffusion coefficient)) ([2]; sliding on dsDNA, biotinylated ends): 0.04

Molecule: B1
- binding result (BRCA2-eGFP): binds

Molecule: B2
- binding result [3]: binds
- binding result [4]: binds
- binding result [5]: binds

Molecule: B3
- binding result [6]: binds
